Marks after values point to notes of the source that are not given here.
Assays:
ob/ob mice [1] = test: ob/ob mice treated with ZAG i.v. with or without propanolol; format: in vivo, mouse; details: ZAG alone
Description: Animals. […] Male mice (about 20 weeks of age) were grouped into three per cage and kept in an air conditioned room at 22±2° C., with ad libitum feeding of a rat and mouse breeding diet (Special Diet Services, Witham, UK) and tap water. Mice were administered ZAG (50 μg, i.v. in 100 μl PBS) or PBS daily with or without propanolol (40 mgkg^−1, po, daily) and body weight and food and water intake were determined, as well as urinary glucose excretion and body temperature, determined by the use of a rectal thermometer (RS Components, Northants, UK). A glucose tolerance test was performed on day 3. […] Blood samples were removed from the tail vein at 15, 30, 60 and 120 min after glucose administration and used for the measurements of glucose and insulin. At the end of the experiment the animals were terminated by cervical dislocation, tissues removed and rapidly frozen in liquid nitrogen, and maintained at −80° C.
To determine whether ZAG can increase insulin signalling the effect on Glut4 expression was determined.

[2] = tested on: rat epididymal adipocytes; test: Lipolytic activity in rat adipocytes; format: cell-based; details: concentrations between 233 and 700 nM
Description: Lipolytic Activity in Rat Adipocytes—White adipocytes were prepared from finely minced epididymal adipose tissue of male Wistar rats (400 g) using collagenase digestion, as described (Beck S A, et al. Production of lipolytic and proteolytic factors by a murine tumor-producing cachexia in the host. Cancer Res 47:5919-5923, 1987). Lipolytic activity was determined by incubating 10^5-2×10^5 adipocytes for 2 h in 1 ml Krebs-Ringer bicarbonate buffer, pH 7.2, and the extent of lipolysis was determined by measuring the glycerol released (Wieland O. Glycerol UV method. Methods of Enzymatic Analysis, edited by Bergmeyer H U. Academic Press, London, pp 1404-1409, 1974). Spontaneous glycerol release was measured by incubating adipocytes alone. Lipolytic activity was expressed as μmol glycerol released/10^5 adipocytes/2 h.

ob/ob mice [3] = test: Body weight loss by route of administration of ZAG in ob/ob mice; format: in vivo, mouse; details: intraveneous, 50 ug/day
[4] = tested on: WAT, BAT and gastrocnemius muscle of male Wistar rats; test: Western blots of tissues from rats treated with ZAG; format: in vivo, rat
Description: Samples of epididymal WAT, BAT and gastrocnemius muscle excised from rats treated with ZAG or PBS for 5 days were homogenized in 0.25M sucrose, 1 mM HEPES, pH 7.0 and […], and then centrifuged for 10 min at 4,500 rpm. Samples of cytosolic protein (10 μg) were resolved on 12% sodium dodecylsulphate polyacrylamide gel electrophoresis and the proteins were then transferred onto 0.45 μm nitrocellulose membranes, which had been blocked with 5% Marvel in Tris-buffered saline, pH 7.5, at 4° C. overnight, and following four 15 min washes with 0.1% Tween in PBS, incubation with the secondary antibody was performed for 1 h at room temperature. Development was by ECL.

male Wistar rats = test: mature male Wistar rats, daily i.v. ZAG for 10 days: body weight, body composition, plasma metabolites; format: in vivo, rat
Description: Animal—Rats. Mature male Wistar rats (one year old from our own colony) weighing 540±82.5 g were housed individually and treated once daily i.v., with either ZAG in PBS (100 μl) (50 μg per 100 g body weight), or with PBS (100 μl) as a control. Both food and water intake and body weight were measured daily. Animals were given free access to food (Special Diet Services, Essex, UK) and water ad libitum. The animal experiment was carried out under the welfare conditions imposed by the British Home Office. After 10 days treatment the animals were terminated and the body composition determined. Animals were heated to 80-90° C. for 7 days until constant weight was achieved. The water content was then determined from the difference between the wet and dry weight. Lipids were extracted from the dry carcass using a sequence of chloroform:methanol (1:1), ethanol/acetone (1:1) and diethyl ether (120 ml of each) as described by Lundholm et al (14). The solvents were evaporated and the fat weighed. The non-fat carcass mass was calculated as the difference between the initial weight of the carcass and the weight of water and fat.
Serum Metabolite Determinations. Non-esterified fatty acids (NEFA) were determined using a Wako-ASC-ACOD kit (Wako Chemical GmbH, Neuss, Germany). Triglycerides were determined using a Triglyceride kit (Sigma Chemical Co., Poole, United Kingdom) and 3-hydroxybutyrate by a quantitative enzymatic determination kit (Sigma). Glucose was measured using a glucose analyser (Beckman, Irvine, Calif.) and glycerol was determined enzymatically using the method of Wieland as described in “Methods of Enzymatic Analysis” (Ed. Bergmeyer, H. U.) Vol. 3, pp1404-1409, published by Academic Press, London (1974).

B1: ZAG: recombinant full length human zinc-α2-glycoprotein (SEQ ID NO: 1) secreted by transfected HEK293F cells; lipid mobilizing factor (protein, listed as Homo sapiens)
chain: QENQDGRYSLTYIYTGLSKHVEDVPAFQALGSLNDLQFFRYNSKDRKSQPMGLWRQVEGMEDWKEDSQLQKAREDMETLKDIVEYYNDSNGSHVLQGRFGCEIENNRSSGAFWKYYYDGKDYIEFNKEIPAWVPFDPAAQITKQKWEAEPVYVQRAKAYLEEECPATLRKYLKYSKNILDRQDPPSVVVTSHQAPGEKKKLKCLAYDFYPGKIDVHWTRAGQVQEPELRGDVLHNGNGTYQSWVVVAVPPQDTAPYSCHVQHSSLAQPLVVPWEAS
B1 was tested, and the “effect on liver lipids” value (ob/ob mice [1]) was “no effect on liver lipids”, the “glycerol release from rat epididymal adipocytes” value [2] was “dose-related increase in glycerol release” and the “% of i.v. loss over the same time” value (ob/ob mice [3]; 8 Days) was 100%. The “% of i.v. loss over the same time” value (ob/ob mice [3]; 20 Days) was 100%, the Body weight loss (ob/ob mice [3]; 70 g ob/ob mice, 8 Days) was −6.0% and the “expression of ATGL and HSL in epididymal adipose tissue” value ([4]; rats) was “two-fold increase”. For the same molecule, the “expression of UCP-1 and -3 in BAT and WAT” value ([4]; rats) was “almost two-fold”, the “phosphorylated forms of PKR and eIF2 α-subunit in gastrocnemius muscle” value ([4]; rats) was “significant reduction” and the “expression of ZAG in skeletal muscle, WAT and BAT” value ([4]; rats treated for 10 days) was “significantly increased”. The “time to significant elevation in body temperature” value (male Wistar rats; after the first administration) was no more than 24 h, the Final weight (male Wistar rats; male rats, after 10 days) was 525 ± 1 g and the Weight change (male Wistar rats; male rats, after 10 days) was -5 ± 1 g. For the same molecule, the “elevation in body temperature” value (male Wistar rats; rats) was 0.4 °C, the “Glucose (plasma)” value (male Wistar rats; rats treated for 10 days) was 16.2 ± 2.1^c mmol/l and the “Glycerol (plasma)” value (male Wistar rats; rats treated for 10 days) was 450 ± 51^c umol/l. The “NEFA (plasma)” value (male Wistar rats; rats treated for 10 days) was 0.26 ± 0.06^b mEq/l, the “Trigylcerides (plasma)” value (male Wistar rats; rats treated for 10 days) was 1.1 ± 0.09^a mmol/l and the “decrease in plasma levels of NEFA” value (male Wistar rats; rats, 10 days) was 55%. The “increase in plasma glycerol concentration” value (male Wistar rats; rats, 10 days) was 50%, the “reduction of plasma levels of glucose and triglycerides” value (male Wistar rats; rats, 10 days) was 36-37% and the “decrease in body weight” value (male Wistar rats; rats, after 10 days, 50 μg/100 g b.w. i.v. daily) was 5 g.

Source: patent US10077295B2, “Glycoproteins having lipid mobilizing properties and therapeutic uses thereof” (Aston University, priority 2010, dated 2018)
